According to US20210009982:

Biological target: T1, mini cellulose-binding protein A (mCbpA), P38058
T1 chain: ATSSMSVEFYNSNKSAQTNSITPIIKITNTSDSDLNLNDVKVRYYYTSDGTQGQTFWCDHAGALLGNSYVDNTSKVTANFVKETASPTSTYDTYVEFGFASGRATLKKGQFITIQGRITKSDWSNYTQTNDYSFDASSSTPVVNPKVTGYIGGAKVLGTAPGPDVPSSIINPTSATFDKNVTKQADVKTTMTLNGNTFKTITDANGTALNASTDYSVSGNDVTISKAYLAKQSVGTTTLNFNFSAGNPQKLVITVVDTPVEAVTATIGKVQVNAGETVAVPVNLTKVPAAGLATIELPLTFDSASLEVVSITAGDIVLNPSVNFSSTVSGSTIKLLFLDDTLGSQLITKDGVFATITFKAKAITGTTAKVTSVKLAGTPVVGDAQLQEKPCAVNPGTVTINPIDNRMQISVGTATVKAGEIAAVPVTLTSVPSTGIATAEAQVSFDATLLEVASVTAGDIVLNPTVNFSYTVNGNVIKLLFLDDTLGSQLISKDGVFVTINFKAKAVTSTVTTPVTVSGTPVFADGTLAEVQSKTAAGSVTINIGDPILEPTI

B1: arabinose isomerase (LsAraA) linked with the dockerin module of the endo-β-1,4-glucanase B gene (protein)
chain: SLSARVSFKKHVKKGVFIMLNTENYEFWFVTGSQSLYGEETLRSVEKDAKEIVEKLNASRQLPYPIVFKLVATTADNITKVMKEANYNDHVAGVITWMHTFSPAKNWIRGTKLLQKPLLHLATQFLNKIPYDTIDFDYMNLNQSAHGDREYAFINARLRKNNKIISGYWGDEDVQKAMAKWMDVAVAYNESFKIKVVTFADKMRNVAVTDGDKVEAQIKFGWTVDYWGVGDLVAEVNAVSEADIDAKYADLQKEYDFVEGQNTPEKFEHNVKYQIREYFGLKKFMDDRGYTAFTTNFEDLVGLEQLPGLAAQLLMAEGYGFAGEGDWKTAALDRLLKIMAHNEKTVFMEDYTLDLRQGHEAILGSHMLEVDPSIASDKPRVEVHPLDIGDKDDPARLVFTGMQGDAVDVTMADYGDEFKLMSYDVRGNKPEADTPHLPVAKQLWTPKQGLREGAVGWLTVGGGHHTVLSFAVDSEQLQDLSHLFDLTYVNIKTQTQTSYSLGDVNKDGKVNAIDYAVLKSILLGTNTNVDLSVSDMNKDGKVNALDLAVLKKMLLS
- tagatose conversion activity using galactose as a substrate: the degradation activity was increased in the order of mCbpA (M), arabinose isomerase (LsAraA, L) and arabinose isomerase-mCbpA (LM)
